B2: GST-KIF1C stalk 674-922 (domain or fragment, human, UniProt O43896 674-922, looked up)
chain: SDSGDDSDKRSCEESWRLISSLREQLPPTTVQTIVKRCGLPSSGKRRAPRRVYQIPQRRRLQGKDPRWATMADLKMQAVKEICYEVALADFRHGRAEIEALAALKMRELCRTYGKPDGPGDAWRAVARDVWDTVGEEEGGGAGSGGGSEEGARGAEVEDLRAHIDKLTGILQEVKLQNSSKDRELQALRDRMLRMERVIPLAQDHEDENEEGGEVPWAPPEGSEAAEEAAPSDRMPSARPPSPPLSSWE
notes: KIF1C, human, residues 674-922; Based on the original GST–KIF1C stalk plasmid; also called KIF1CS^2; KIF1CS^674–922; source: E. coli SoluBL21, purified (Ni-NTA, SEC); not shown: GST, N-terminal, kept

How the values were obtained:
[1] = molecular target: B2; assay: cross-linking; cross-linking mass spectrometry; 10 mM EDC or 5 mM DSSO, room temperature, 60 min; full-length FHF or FH^571-718F with KIF1C stalk 674-922; conditions: both partners purified
[2] = molecular target: the molecule itself; assay: cryo-EM structure; FTS, FHIP1B and HOOK3 571–718, co-expressed in Sf9 and purified as one complex; 3.2 Å; 0.9 mg/ml with 0.1% CHAPSO or 0.005% Igepal
[3] = molecular target: T1, full-length HOOK3 (of FHF co-expression) (human, UniProt Q86VS8 1-718); assay: cross-linking; cross-linking mass spectrometry; 10 mM EDC or 5 mM DSSO, room temperature, 60 min; full-length FHF or FH^571-718F with KIF1C stalk 674-922; conditions: both partners purified
T1 construct: HOOK3, human, full length; gene codon optimized for Sf9; Captured on Strep-Tactin by the tag, then released with PreScission protease before gel filtration; source: Sf9, co-expressed with FTS and FHIP1B or FHIP2A, purified (Strep-Tactin, PreScission, SEC); not shown: Strep II, N-terminal, cleaved
T1 sequence (looked up): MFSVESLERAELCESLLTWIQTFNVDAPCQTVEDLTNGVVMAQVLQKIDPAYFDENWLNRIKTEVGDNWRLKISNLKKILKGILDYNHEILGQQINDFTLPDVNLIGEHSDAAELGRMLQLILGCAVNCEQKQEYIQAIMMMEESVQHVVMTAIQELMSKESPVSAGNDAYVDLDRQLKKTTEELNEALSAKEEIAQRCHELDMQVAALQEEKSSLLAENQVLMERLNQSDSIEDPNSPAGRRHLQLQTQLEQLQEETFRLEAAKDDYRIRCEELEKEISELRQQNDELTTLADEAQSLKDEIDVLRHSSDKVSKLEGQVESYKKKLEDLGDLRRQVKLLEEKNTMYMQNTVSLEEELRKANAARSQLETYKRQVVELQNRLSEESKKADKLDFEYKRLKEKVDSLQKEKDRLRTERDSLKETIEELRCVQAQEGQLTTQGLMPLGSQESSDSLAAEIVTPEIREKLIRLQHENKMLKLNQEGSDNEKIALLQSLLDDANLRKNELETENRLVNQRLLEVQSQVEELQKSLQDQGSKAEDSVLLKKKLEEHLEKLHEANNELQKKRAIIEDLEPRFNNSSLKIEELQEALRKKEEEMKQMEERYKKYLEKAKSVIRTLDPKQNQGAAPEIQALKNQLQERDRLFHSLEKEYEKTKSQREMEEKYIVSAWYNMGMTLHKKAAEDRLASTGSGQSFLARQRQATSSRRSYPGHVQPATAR

[4] = molecular target: T2, C-terminal HOOK3 (residues 451–718) (human, UniProt Q86VS8 451-718); assay: cryo-EM structure; FH^451–718F with GST-KIF1C stalk 674–922; 4.8 Å, low resolution at the KIF1C stalk density; no atomic model; conditions: both partners purified
T2 construct: also called H^C; source: Sf9, co-expressed with FTS and FHIP1B, purified (Strep-Tactin, PreScission, SEC); not shown: Strep II, N-terminal, cleaved
T2 sequence (looked up): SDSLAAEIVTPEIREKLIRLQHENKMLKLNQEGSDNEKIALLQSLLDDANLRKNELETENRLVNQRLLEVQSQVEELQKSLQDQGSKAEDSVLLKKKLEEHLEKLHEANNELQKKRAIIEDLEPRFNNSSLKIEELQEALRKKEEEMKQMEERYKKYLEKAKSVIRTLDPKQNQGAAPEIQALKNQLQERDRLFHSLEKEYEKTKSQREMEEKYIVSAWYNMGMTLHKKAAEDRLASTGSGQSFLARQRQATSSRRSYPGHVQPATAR

[5] = molecular target: T3, KIF1C–GFP (full-length KIF1C fused to a C-terminal eGFP) (human, UniProt O43896 1-1103); assay: single-molecule TIRF microscopy, co-movement on microtubules; 200 nM TMR–dynein, 200 nM dynactin, 1,600 nM labeled adapter and 180 nM KIF1C-GFP mixed at ~75 mM KCl, on ice 45–60 min, diluted 1:20 or 1:40; biotin-microtubules held on the coverslip; 25 °C; conditions: both partners purified
T3 construct: kinesin-3 KIF1C, human, full length (residues up to 1103 are named); also called KFL; KFL–GFP; not shown: eGFP, C-terminal, kept
T3 sequence (looked up): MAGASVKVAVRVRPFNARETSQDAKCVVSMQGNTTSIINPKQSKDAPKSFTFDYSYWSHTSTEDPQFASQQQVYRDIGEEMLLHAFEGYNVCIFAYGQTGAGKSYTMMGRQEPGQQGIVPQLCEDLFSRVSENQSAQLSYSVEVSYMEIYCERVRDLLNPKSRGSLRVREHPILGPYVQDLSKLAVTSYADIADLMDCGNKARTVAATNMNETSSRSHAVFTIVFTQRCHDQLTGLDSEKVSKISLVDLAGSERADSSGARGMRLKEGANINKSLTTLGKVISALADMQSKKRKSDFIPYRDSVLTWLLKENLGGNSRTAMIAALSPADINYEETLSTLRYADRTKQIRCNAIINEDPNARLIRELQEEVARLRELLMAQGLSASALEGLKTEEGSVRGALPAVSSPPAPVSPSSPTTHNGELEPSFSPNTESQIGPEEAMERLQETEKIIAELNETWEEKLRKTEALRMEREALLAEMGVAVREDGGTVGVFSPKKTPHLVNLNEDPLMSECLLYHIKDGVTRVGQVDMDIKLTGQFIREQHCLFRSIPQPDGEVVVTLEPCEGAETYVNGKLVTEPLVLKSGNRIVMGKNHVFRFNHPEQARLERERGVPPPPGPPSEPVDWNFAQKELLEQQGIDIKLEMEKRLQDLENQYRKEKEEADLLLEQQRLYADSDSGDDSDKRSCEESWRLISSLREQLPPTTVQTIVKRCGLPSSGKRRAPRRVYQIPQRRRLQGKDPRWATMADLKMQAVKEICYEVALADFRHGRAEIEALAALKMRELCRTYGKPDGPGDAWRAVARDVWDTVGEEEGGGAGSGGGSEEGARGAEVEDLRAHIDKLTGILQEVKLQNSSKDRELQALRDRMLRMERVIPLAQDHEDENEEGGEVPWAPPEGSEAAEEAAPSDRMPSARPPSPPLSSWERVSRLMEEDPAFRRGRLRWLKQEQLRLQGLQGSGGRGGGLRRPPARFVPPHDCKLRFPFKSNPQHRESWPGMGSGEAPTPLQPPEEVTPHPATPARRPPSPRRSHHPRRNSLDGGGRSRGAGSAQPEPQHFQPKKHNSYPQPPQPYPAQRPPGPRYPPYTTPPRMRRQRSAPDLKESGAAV

[6] = molecular target: T4, full-length FTS–HOOK3–FHIP1B complex (human, UniProt Q86VS8 1-718; Q9H8T0 1-292; Q8N612 1-972); assay: mass photometry; full-length FHF with KIF1C stalk, 100 nM in GF150, Refeyn TwoMP; conditions: both partners purified
T4 construct: HOOK3, human, full length; FTS, human, full length; FHIP1B, human, full length; SEC-MALS gave ~304 kDa for the full-length complex; also called FHF; full-length FHF; source: Sf9, co-expressed, purified (Strep-Tactin, PreScission, SEC); not shown: Strep II, N-terminal, cleaved; copies: 2 + +
T4 sequence (Q9H8T0 whole entry, chain 2 of 2): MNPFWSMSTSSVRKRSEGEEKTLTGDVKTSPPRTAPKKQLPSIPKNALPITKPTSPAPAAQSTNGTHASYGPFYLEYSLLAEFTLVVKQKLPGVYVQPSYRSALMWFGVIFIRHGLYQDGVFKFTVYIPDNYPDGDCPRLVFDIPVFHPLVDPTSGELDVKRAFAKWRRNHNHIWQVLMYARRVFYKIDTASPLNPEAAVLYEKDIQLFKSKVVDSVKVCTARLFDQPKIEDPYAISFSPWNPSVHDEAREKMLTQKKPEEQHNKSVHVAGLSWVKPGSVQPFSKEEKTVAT
T4 sequence (Q8N612 whole entry, chain 3 of 2): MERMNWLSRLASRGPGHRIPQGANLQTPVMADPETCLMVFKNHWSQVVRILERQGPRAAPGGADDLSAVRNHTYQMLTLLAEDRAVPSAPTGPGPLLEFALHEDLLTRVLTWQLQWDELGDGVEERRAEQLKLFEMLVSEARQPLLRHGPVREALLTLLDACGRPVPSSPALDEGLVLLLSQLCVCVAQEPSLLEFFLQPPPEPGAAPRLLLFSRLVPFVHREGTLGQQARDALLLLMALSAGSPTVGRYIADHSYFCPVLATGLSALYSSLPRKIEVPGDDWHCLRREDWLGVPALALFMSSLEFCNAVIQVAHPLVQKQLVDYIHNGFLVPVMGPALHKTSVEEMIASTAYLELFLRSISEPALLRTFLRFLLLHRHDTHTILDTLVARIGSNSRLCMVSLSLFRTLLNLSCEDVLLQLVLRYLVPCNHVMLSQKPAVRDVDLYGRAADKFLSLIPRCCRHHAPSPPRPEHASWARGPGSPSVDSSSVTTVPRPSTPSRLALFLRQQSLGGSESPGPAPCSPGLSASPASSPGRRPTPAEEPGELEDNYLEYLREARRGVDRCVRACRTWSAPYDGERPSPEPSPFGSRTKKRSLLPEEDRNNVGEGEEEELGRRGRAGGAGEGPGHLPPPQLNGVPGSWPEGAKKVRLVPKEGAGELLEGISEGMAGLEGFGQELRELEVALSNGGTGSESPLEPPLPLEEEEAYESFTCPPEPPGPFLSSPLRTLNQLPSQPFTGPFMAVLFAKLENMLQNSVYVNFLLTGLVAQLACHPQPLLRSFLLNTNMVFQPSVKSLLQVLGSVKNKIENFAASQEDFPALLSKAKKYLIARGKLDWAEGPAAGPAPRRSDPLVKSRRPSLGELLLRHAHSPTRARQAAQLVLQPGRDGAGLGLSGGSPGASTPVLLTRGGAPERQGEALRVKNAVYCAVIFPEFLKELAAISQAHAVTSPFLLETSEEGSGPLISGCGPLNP

B1: C-terminal HOOK3 fragment (residues 571–718) (domain or fragment, human, UniProt Q86VS8 571-718, looked up)
chain: DLEPRFNNSSLKIEELQEALRKKEEEMKQMEERYKKYLEKAKSVIRTLDPKQNQGAAPEIQALKNQLQERDRLFHSLEKEYEKTKSQREMEEKYIVSAWYNMGMTLHKKAAEDRLASTGSGQSFLARQRQATSSRRSYPGHVQPATAR
notes: gene codon optimized for Sf9; Captured on Strep-Tactin by the tag, then released with PreScission protease before gel filtration; Two copies form the coiled coil in the structure; source: Sf9, co-expressed with FTS and FHIP1B or FHIP2A, purified (Strep-Tactin, PreScission, SEC); not shown: Strep II, N-terminal, cleaved
B1: binds [1]; binds [2].

B2: binds [3]; binds [4].

B3: HOOK3-SNAPf labeled with Alexa-647 (natural protein, human, UniProt Q86VS8 1-718, looked up)
chain: MFSVESLERAELCESLLTWIQTFNVDAPCQTVEDLTNGVVMAQVLQKIDPAYFDENWLNRIKTEVGDNWRLKISNLKKILKGILDYNHEILGQQINDFTLPDVNLIGEHSDAAELGRMLQLILGCAVNCEQKQEYIQAIMMMEESVQHVVMTAIQELMSKESPVSAGNDAYVDLDRQLKKTTEELNEALSAKEEIAQRCHELDMQVAALQEEKSSLLAENQVLMERLNQSDSIEDPNSPAGRRHLQLQTQLEQLQEETFRLEAAKDDYRIRCEELEKEISELRQQNDELTTLADEAQSLKDEIDVLRHSSDKVSKLEGQVESYKKKLEDLGDLRRQVKLLEEKNTMYMQNTVSLEEELRKANAARSQLETYKRQVVELQNRLSEESKKADKLDFEYKRLKEKVDSLQKEKDRLRTERDSLKETIEELRCVQAQEGQLTTQGLMPLGSQESSDSLAAEIVTPEIREKLIRLQHENKMLKLNQEGSDNEKIALLQSLLDDANLRKNELETENRLVNQRLLEVQSQVEELQKSLQDQGSKAEDSVLLKKKLEEHLEKLHEANNELQKKRAIIEDLEPRFNNSSLKIEELQEALRKKEEEMKQMEERYKKYLEKAKSVIRTLDPKQNQGAAPEIQALKNQLQERDRLFHSLEKEYEKTKSQREMEEKYIVSAWYNMGMTLHKKAAEDRLASTGSGQSFLARQRQATSSRRSYPGHVQPATAR
modifications: Alexa-647 on the SNAP tag
notes: HOOK3, human, amplified from a human cDNA library from the start codon to the last codon; also called HOOK3-Alexa 647; source: Sf9, purified (Ni-NTA, IgG Sepharose, cut off the beads with TEV protease); not shown: 8xHis, N-terminal, cleaved; ZZ, N-terminal, cleaved; SNAPf, C-terminal, kept
B3: binds [5].

B4: GST–KIF1C stalk (residues 642–922) (domain or fragment, human, UniProt O43896 642-922, looked up)
chain: EMEKRLQDLENQYRKEKEEADLLLEQQRLYADSDSGDDSDKRSCEESWRLISSLREQLPPTTVQTIVKRCGLPSSGKRRAPRRVYQIPQRRRLQGKDPRWATMADLKMQAVKEICYEVALADFRHGRAEIEALAALKMRELCRTYGKPDGPGDAWRAVARDVWDTVGEEEGGGAGSGGGSEEGARGAEVEDLRAHIDKLTGILQEVKLQNSSKDRELQALRDRMLRMERVIPLAQDHEDENEEGGEVPWAPPEGSEAAEEAAPSDRMPSARPPSPPLSSWE
notes: KIF1C, human, amino acids 642-922 (CC2, stalk globular domain, CC3); A tandem TEV site lies between GST and KIF1C; also called KS; GST-tagged KIF1C stalk; source: E. coli SoluBL21, purified (Ni-NTA, SEC); not shown: GST, N-terminal, kept
For B4, the “stoichiometry N” value [6] was 1 dimeric KIF1C stalk per FHF.

Reference: article PMC11996680, “KIF1C activates and extends dynein movement through the FHF cargo adapter” (Nature Structural & Molecular Biology, 2025)
